PMC4536308

What was measured:
[1] = target: T1, AUF1 p37 C207E (UniProt Q14103-4 1-287, C207E); test: EMSA
[2] = target: AUF1 p42 (UniProt Q14103-2 1-336); test: fluorescence anisotropy
[3] = target: AUF1 p37 (UniProt Q14103-4 1-287); test: fluorescence anisotropy
[4] = target: T1, AUF1 p37 C207E; test: fluorescence anisotropy
[5] = target: AGO2 (hAGO2) (human, UniProt Q9UKV8 1-859); test: single-molecule fluorescence
[6] = target: HILI (hHILI) (human, UniProt Q8TC59 1-973); test: single-molecule fluorescence
HILI (hHILI), sequence (Q8TC59 whole entry): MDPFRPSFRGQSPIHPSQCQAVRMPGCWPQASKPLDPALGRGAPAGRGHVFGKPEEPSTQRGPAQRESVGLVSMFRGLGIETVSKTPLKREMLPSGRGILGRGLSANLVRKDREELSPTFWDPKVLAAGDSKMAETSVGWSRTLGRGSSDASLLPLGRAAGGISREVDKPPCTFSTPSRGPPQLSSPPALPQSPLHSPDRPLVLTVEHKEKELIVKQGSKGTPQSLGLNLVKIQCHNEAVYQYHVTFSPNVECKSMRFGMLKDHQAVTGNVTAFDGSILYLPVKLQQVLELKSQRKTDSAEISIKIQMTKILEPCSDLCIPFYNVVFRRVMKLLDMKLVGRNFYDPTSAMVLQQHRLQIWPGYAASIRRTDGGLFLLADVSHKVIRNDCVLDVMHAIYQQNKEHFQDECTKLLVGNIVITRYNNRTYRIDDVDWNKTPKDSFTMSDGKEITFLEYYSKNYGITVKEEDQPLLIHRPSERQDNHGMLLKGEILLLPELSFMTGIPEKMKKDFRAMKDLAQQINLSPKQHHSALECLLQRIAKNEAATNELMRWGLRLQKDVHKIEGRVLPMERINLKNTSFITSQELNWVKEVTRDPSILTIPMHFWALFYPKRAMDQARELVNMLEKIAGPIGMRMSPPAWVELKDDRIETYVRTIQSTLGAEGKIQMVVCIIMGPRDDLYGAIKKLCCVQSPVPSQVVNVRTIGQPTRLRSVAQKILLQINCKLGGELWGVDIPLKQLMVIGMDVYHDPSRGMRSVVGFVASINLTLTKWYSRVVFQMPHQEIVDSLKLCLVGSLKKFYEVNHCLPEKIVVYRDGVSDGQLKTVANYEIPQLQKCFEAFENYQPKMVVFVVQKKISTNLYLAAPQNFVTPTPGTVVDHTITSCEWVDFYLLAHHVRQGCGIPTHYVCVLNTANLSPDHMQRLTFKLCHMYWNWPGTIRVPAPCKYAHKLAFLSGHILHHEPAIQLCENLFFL

AGO2 (hAGO2), sequence (Q9UKV8 whole entry): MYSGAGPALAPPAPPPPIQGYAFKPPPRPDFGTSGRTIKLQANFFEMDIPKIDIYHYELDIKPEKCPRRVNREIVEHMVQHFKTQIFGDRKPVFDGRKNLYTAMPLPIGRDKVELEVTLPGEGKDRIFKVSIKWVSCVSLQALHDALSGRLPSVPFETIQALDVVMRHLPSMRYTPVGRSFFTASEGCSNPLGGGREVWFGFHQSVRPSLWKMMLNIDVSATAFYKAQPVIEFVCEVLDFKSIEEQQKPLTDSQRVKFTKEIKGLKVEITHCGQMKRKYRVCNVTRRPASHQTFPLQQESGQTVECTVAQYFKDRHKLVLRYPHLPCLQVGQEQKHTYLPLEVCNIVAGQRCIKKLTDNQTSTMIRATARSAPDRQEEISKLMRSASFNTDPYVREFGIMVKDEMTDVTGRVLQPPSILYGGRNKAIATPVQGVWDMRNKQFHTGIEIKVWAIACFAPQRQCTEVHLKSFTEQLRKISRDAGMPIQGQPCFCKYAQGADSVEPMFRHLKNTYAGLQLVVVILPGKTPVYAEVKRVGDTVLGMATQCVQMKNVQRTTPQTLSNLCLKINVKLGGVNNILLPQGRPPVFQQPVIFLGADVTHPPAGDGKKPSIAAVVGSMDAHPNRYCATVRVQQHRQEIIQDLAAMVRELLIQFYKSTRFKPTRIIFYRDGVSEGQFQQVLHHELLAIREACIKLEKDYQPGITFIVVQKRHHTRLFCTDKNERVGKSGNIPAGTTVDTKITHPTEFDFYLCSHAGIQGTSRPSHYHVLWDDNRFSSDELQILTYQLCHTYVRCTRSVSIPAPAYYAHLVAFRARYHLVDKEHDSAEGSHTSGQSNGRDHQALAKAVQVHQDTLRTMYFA

UGAGGUAGUAGGUUGUGUGGUU (ssRNA) [let-7b (32P)]
binding result [1]: no binding

CUAUACAACCUACUGCCUUCCC (ssRNA) [let-7b* (32P or 3' Fl)]
binding result [1]: no binding

CCCCUGGCUCACAAAUACCUUAUUUAUUUAUUUAG (ssRNA) [canonical AU-rich element]
binding result [1]: no binding

UGAGGUAGUAGGUUGUGUGGUU (ssRNA) [let-7b (Fl)]
Kd [2]: 9.7 nM | Kd [3]: 5.9 nM | binding result [4]: no binding

UGAGGUAGUAGGUUGUGUGGUU (ssRNA, amino-modifier C6 U at position 18 (iAmMC6)) [Cy5-let-7b (internal)]
binding result [5]: binds | binding result [6]: no binding
